From article PMC9830665 come the findings set out here.

Assay [1] has as its target uridine-specific nidoviral endoribonuclease (NendoU) protein from SARS-CoV-2 (SARS-CoV-2). Put plainly: SEC. (In gel filtration, larger molecules generally elute earlier.)
For assay [2] the target is unchanged. Nature of the assay: dynamic light scattering.

As to “uridine-specific nidoviral endoribonuclease (NendoU) protein from SARS-CoV-2 (enzyme)”, the stoichiometry N in assay [1] and in assay [2] was 6 each time.
